Data reported in patent publication US9856300B2, “Dpy-30 binding peptides and methods of use” (Marquette University, priority 2011, dated 2018).
No end group written: not given here.

B1: RSP396-180: GST-tagged RSP3 fragment a.a. 96-180 that harbors the RIIa-binding AHR at a.a.#161-178 (protein)
chain: HIDIQTDVYLEELTDTVPEADTSTQTDAFLDRPPTPLFVPQKTGTDAITQIENGDLFDFDFEVEPILEVLVGKVLEQGLMEVLEE
modifications: left off: a dimerising Fc or GST

How the values were obtained:
RIIα D/D (a.a.#1-64) = biological target: T1, RIIα D/D (a.a.#1-64) (Mus musculus, UniProt P12367, S2G); assay: Ni-NTA pulldown with His-RIIα D/D; type: binding; conditions: 300 mM NaCl buffers
T1 construct: made in house; host or cells: E. coli BL21(DE3); template pRSETB-RIIα from Dr. Susan Taylor
Excerpt: (§1) Most AHs are mono-specific to RIIα D/D except a few that are either RIα D/D-specific (Angelo and Rubin, 1998; Means et al., 2011; Welch et al., 2010) or dual specific, binding to both (Huang et al., 1997; Jarnaess et al., 2008). To test if hAsh2 AH can cross-react with PKA's D/D, we created constructs expressing the D/D domain and the flanking sequences from bovine RIα (a.a.#1-81) and mouse RIIα (a.a.#1-64). His-RIα D/D or His-RIIα D/D was co-expressed with GST-RSP396-180, which contains the AH (RSP3160-178) that bind RII in the overlay assay (Gaillard et al., 2001). […] In the eluate, the ratio of RSP396-180-RIα D/D was the lowest, followed by RSP396-180-RIIα D/D and then RSP396-180-RIIα D/D from RSP7, the de facto partner of RSP3. Although RSP396-180 in the extract was also the most concentrated when co-expressed with RSP7's RIIα, this likely is due to effective binding of RSP7's D/D, protecting GST-RSP396-180 from proteolysis, which occurred when GST-RSP396-180 was expressed by itself (not shown). Similarly, when co-expressed with GST-hAsh2593-623, RIα D/D and RIIα D/D were depleted in the flow through but few polypeptides, especially RIIα D/D, were present in the eluate (FIG. 12A, right panel, compare Extract, Post and Elute). […]

RIα D/D (a.a.#1-81) = biological target: T2, RIα D/D (a.a.#1-81) (Bos taurus, UniProt P00514); assay: Ni-NTA pulldown with His-RIα D/D; type: binding, bovine; conditions: 300 mM NaCl buffers
T2 construct: made in house; host or cells: E. coli BL21(DE3); template pRSETB-RIα from Dr. Susan Taylor
Excerpt: as §1, with “shown).” for “shown). Similarly, when co-expressed with GST-hAsh2593-623, RIα D/D and RIIα D/D were depleted in the flow through but few polypeptides, especially RIIα D/D, were present in the eluate (FIG. 12A, right panel, compare Extract, Post and Elute).”
Although both RIα D/D and Dpy-30 D/D have a common α0 helix (Wang et al., 2009), GST-hAsh2593-623 cross reacted with RIα D/D poorly. […] To test this, the samples from repeated experiments were analyzed in the non-reducing SDS-PAGE. […]

Dpy-30 [1] = biological target: T3, Dpy-30 (Homo sapiens, UniProt Q9C005); assay: Ni-NTA pulldown of GST-hAsh2 peptides with His-Dpy-30; type: binding; parameters: Dpy-30 fragments, full length or a.a.#49-99, were amplified using purchased IMAGE cDNA clone #4081996 as a template; made in house; host or cells: E. coli BL21(DE3); key to co-purified with Dpy-30: “+” or “−” indicates if the peptides were or were not evidently co-purified with Dpy-30; “+” or “−” indicates if the peptides were or were not evidently co-purified with Dpy-30
Excerpt: To test this, we performed pull down assays for His-Dpy-30 and GST-hAsh2593-623. The human Ash2 fragment contains a helix with two typical and three atypical ΦΦXX motifs. The hAsh2 DNA was fused downstream to GST DNA by PCR and the product was cloned into an expression vector. Three clones—#9 and #14 with the expected in-frame fusion and #6 with an out-of-frame fusion—were expressed in bacteria. Their extract was mixed with equal volume of bacterial extract with His-Dpy-30; and the mixture was subjected to Ni-NTA purification. […] Thus hAsh2593-623 interacts with Dpy-30 specifically.
Table 3 illustrates the protein sequences of hAsh2's C-terminal region (hAsh2593-623) and its variants, where “+” or “−” indicates if the peptides were or were not evidently co-purified with Dpy-30. The shorter fusion protein GST-hAsh2593-617 that terminated right after the last possible ΦΦXX-like motif, VETE (SEQ ID NO:35), in the helix was also co-purified with His-Dpy-30 (FIG. 11B, arrow and double arrowheads), no matter expressed separately or co-expressed. Both polypeptides were depleted in the flow through of Ni-NTA matrix (Post in FIG. 11B) and retained in the eluate.
All expression constructs were transformed or co-transformed into BL21(DE3) cells. The colonies were selected based on the antibiotic-resistant gene in each plasmid. The cultures were induced with 1 mM IPTG overnight at 18° C. The cell pellet from a 5-ml culture was resuspended in 750-μl lysis buffer supplemented with Complete Mini EDTA-free protease inhibitor cocktail tablets (Roche) and the suspension was sonicated on ice using Branson digital Sonifier until clarified (Emerson Industrial Automation). The sonicated mixtures were centrifuged at 4° C., 12,000 rpm for 25 min. The supernatant or combinations of supernatants as indicated were incubated with ˜100 μl Ni-NTA (Qiagen or Clontech) or Glutathione Sepharose 4B (Amersham Biosciences) for 1 hour at room temperature. The matrix was subsequently washed as instructed by manufacturers, unless indicated otherwise.
Bacterial extract, flow through and eluate in 1× Laemmli samples buffer were boiled for 5 min. In general, 10 μl samples were loaded in each lane in 4-20% precast acrylamide gels (Bio-Rad or DGEL Electrosystem, Canada) or 14% manually cast gels.

[2] = biological target: T4, Dpy-30 domain only (Dpy-3045-99) (Homo sapiens, UniProt Q9C005); assay: Ni-NTA pulldown of GST-tagged RSP3 peptides with the Dpy-30 domain only; type: binding
T4 construct: made in house; host or cells: E. coli BL21(DE3), co-expressed with the GST-RSP3 peptides
Experimental: (§2) The experiments were further conducted on smaller segments within a.a.#269-316. GST-RSP3280-316 and GST-RSP3280-308, but not GST-RSP3280-306, were also pulled down by His-Dpy-30 (FIG. 7E, left panel). […] To ensure that the co-purification occurs through the Dpy-30 domain rather than its flanking sequence, the same experiment was conducted with the Dpy-30 domain only (Dpy-3045-99, Wang et al., 2009). The results from the experiments using Dpy-30 domain alone or full-length Dpy-30 protein were similar (FIG. 7E, right panel). Based on the similar dimensions of the RIIa and Dpy-30 domains (FIG. 1), we tested if the Dpy-30 binding peptide is centered on the 18-a.a. helix at the a.a.#291-308 by mutating V300 in the middle of the region into P, a strategy used to study AHR (Gaillard et al., 2001; Carr et al., 1992). […] RSP3291-308.
For Ni-NTA (Qiagen) affinity co-purification, GST-tagged RSP3 constructs and His-tagged HDpy-30 constructs were co-transformed into BL21(DE3) cells. The recombinant proteins were induced using 1 mM IPTG overnight at 16° C. Following induction, the cell pellet from a 5-ml culture was resuspended in 750 μl lysis buffer and sonicated using Branson digital Sonifier (Emerson Industrial Automation). The sonicated mixtures were centrifuged at 4° C., 12,000 rpm for 25 min. The supernatant was incubated with 100 μl Ni-NTA for 1 hour at room temperature. […]

Dpy-30 [3] = biological target: T3, Dpy-30; assay: Ni-NTA pulldown of GST-tagged RSP3 peptides with His-tagged human Dpy-30 protein; type: binding; parameters: made in house; host or cells: E. coli BL21(DE3), co-expressed with the GST-RSP3 peptides; conditions: full-length human His-Dpy-30 co-expressed with GST-RSP3 peptide
Excerpt: (§3) Based on the phenotypes of RSP3 transgenic strains (FIG. 4), an in vitro approach was taken to test that RSP3269-316 contains a Dpy-30 domain binding site. RIIa-binding AHs are 14-18-a.a. long. Some of AHs are clearly comprised of ΦΦXX repeats in which the first two residues are hydrophobic residues (Φ) positioned to interact with complementary residues at the binding grooves of the RIIa domain (Burns-Hamuro et al., 2003; Kinderman et al., 2006; Sarma et al., 2010), whereas for the other RIIa-binding AHs the repeats are not as evident (Gold et al., 2006; Gaillard et al., 2001). Typical ΦΦXX repeats were noted within the Dpy-30 binding fragment in BIG1 at the trans-Golgi network but were not tested yet (Xia et al., 2010). For RSP3269-316, typical and degenerate ΦΦXX repeats are present throughout this region, thus the precise Dpy-30 binding site was determined objectively by Ni-NTA pulldown. As a control, the His-tagged RIIa domain from RSP7 was co-expressed with the GST-tagged RSP396-180 that harbors AHR at a.a.#161-178 (Gaillard et al., 2001; FIG. 3) and both polypeptides were co-purified by Ni-NTA (FIG. 7A). Various Dpy-30 domain containing RSP2 and RSP23 polypeptides were tested but were not compatible for this assay due to poor expression or precipitation propensity. Therefore we used the His-tagged human Dpy-30 protein for Ni-NTA pulldown instead. As expected, both GST-RSP3245-316 and GST-RSP3269-316 were co-purified with His-Dpy-30 by Ni-NTA (FIGS. 7B and 7C). In contrast, the GST control was not co-purified (FIG. 7D).
as §2
For Ni-NTA (Qiagen) affinity co-purification, GST-tagged RSP3 constructs and His-tagged HDpy-30 constructs were co-transformed into BL21(DE3) cells. The recombinant proteins were induced using 1 mM IPTG overnight at 16° C. Following induction, the cell pellet from a 5-ml culture was resuspended in 750 μl lysis buffer and sonicated using Branson digital Sonifier (Emerson Industrial Automation). The sonicated mixtures were centrifuged at 4° C., 12,000 rpm for 25 min. The supernatant was incubated with 100 μl Ni-NTA for 1 hour at room temperature. The matrix was subsequently washed thrice and elution was carried out as instructed by the manufacturer.

RIIa domain from RSP7 = assay: Ni-NTA pulldown with His-tagged RIIa domain from RSP7; type: binding, Chlamydomonas; conditions: co-expressed in bacteria
Excerpt: as §3
Based on the structural similarity, we tested for the cross-recognition of His-Dpy-30 and AHR (GST-RSP3g); and RSP7's RIIa and AHD (GST-RSP3280-308) by the described Ni-NTA pulldown assay. […] Thus Dpy-30 that has a deep pocket from an additional α-helix recognizes both AHR and AHD, whereas RSP7's RIIa, as PKA's RII, only binds RSP3's AHR(Gaillard et al., 2001). […]

T3 sequence (Q9C005 whole entry, the tested form may be a part): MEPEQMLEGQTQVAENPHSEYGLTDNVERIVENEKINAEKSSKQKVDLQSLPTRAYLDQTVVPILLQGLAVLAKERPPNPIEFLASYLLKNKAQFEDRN
T2 sequence (P00514 1-81): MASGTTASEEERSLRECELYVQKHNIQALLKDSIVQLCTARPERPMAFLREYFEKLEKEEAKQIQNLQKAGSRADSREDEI
T4 sequence (Q9C005 45-99): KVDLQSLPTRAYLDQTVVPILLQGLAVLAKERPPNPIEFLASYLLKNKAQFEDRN
T1 sequence (P12367 1-64 S2G limits assumed): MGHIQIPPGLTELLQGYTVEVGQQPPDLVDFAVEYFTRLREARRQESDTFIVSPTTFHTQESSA

Molecule	co-purification with His-RIIα D/D (RIIα D/D (a.a.#1-64))	co-purification with His-RIα D/D (RIα D/D (a.a.#1-81))	co-purified with Dpy-30 (Dpy-30 [1]; GST-fused hAsh2 peptides, Ni-NTA pulldown, Coomassie-stained SDS-PAGE)	co-purification with His-Dpy-30 (Dpy-30 [1]; full-length His-Dpy-30, Ni-NTA, result in words)	binding to the Dpy-30 domain [2]	co-purification / pulldown with His-Dpy-30 (Dpy-30 [3])	co-purification / pulldown with His-RIIa from RSP7 (RIIa domain from RSP7)	co-purification / pulldown with His-RIIa from RSP7 (RIIa domain from RSP7; listed as GST-RSP390-180)
PMSDMGWGAVVKHTLADVLYHVETEVDGRRS (also: GST fusion) [E604K, GST-hAsh2593-623 with E604 mutated to K]	substantially enhanced the pulldown	not	+	still pulled down substantially				
V300P: GST-tagged RSP3280-316 with V300 mutated into P (PWLKEQAIGYLARGVVARRVPDKLVEDAAAALAANRS; also: GST tag)					abrogated the binding	abrogated the binding		
B1		the lowest				pulled down	co-purified	most efficient
